Laboratory results: patent US20100104568A1 (published 2010)

Key:
[1] = molecular target: human RANK-L, full length, membrane-bound, expressed on HEK293T cells (human) (UniProt O14788); assay: FACS, HEK293T with human RANK-L, 2000 pM Nanobody
[2] = molecular target: cynomolgus RANK-L, full length, membrane-bound, expressed on HEK293T cells (cynomolgus monkey); assay: FACS, HEK293T with cynomolgus RANK-L, 2000 pM Nanobody
[3] = molecular target: human RANK-L, full length, membrane-bound, expressed on HEK293T cells (human) (UniProt O14788); assay: FACS, HEK293T with human RANK-L, 3.2 pM Nanobody
[4] = molecular target: human RANK-L, full length, membrane-bound, expressed on HEK293T cells (human) (UniProt O14788); assay: FACS, HEK293T with human RANK-L, 80 pM Nanobody
[5] = molecular target: human RANK-L, full length, membrane-bound, expressed on HEK293T cells (human) (UniProt O14788); assay: FACS, HEK293T with human RANK-L, 400 pM Nanobody
[6] = molecular target: cynomolgus RANK-L, full length, membrane-bound, expressed on HEK293T cells (cynomolgus monkey); assay: FACS, HEK293T with cynomolgus RANK-L, 400 pM Nanobody
[7] = molecular target: human RANK-L, full length, membrane-bound, expressed on HEK293T cells (human) (UniProt O14788); assay: FACS, HEK293T with human RANK-L, 16 pM Nanobody
[8] = molecular target: T1, human RANK-L (human, UniProt O14788 140-317); assay: competition ELISA
T1 chain: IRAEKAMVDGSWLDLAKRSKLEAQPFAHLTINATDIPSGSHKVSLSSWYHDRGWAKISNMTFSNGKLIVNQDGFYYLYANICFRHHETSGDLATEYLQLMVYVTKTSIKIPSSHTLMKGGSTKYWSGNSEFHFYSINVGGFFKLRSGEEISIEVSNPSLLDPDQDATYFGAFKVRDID

[9] = molecular target: T1, human RANK-L; assay: cell-based or functional assay
[10] = molecular target: T1, human RANK-L; assay: competition ELISA

Molecule irrelevant Nanobody (VHH) has a PE mean fluorescence [1] of 87, a PE mean fluorescence [2] of 149 and a PE mean fluorescence [3] of 84. It also gave a PE mean fluorescence [4] of 82, a PE mean fluorescence [5] of 90 and a PE mean fluorescence [6] of 140. The PE mean fluorescence [7] was 77.

B1: RANKL003p (VHH)
chain: EVQLVESGGGLVQPGGSLRLSCAASGRTFSRSAMGWFRQAPGKGREFVGFITGSGGTTYYADSVKGRFTISRDNAQNPVYLQMNSLRPEDTAVYYCAVYRRTYISSTYSESSEYDYWGQGTLVTVSSGGGGSGGGGSGGGGSGGGGSGGGGSGGGGSEVQLVESGGGLVQPGGSLRLSCAASGRTFSRSAMGWFRQAPGKGREFVGFITGSGGTTYYADSVKGRFTISRDNAQNPVYLQMNSLRPEDTAVYYCAVYRRTYISSTYSESSEYDYWGQGTLVTVSSGGGC
modifications: PEGylated with maleimide PEG, average MW 40,000; residue not stated (the entry ends in GGGC)
B1 showed an EC50 [8] of 0.0409 nM.

B2: osteoprotegerin (receptor, UniProt O00300 22-401, looked up)
chain: ETFPPKYLHYDEETSHQLLCDKCPPGTYLKQHCTAKWKTVCAPCPDHYYTDSWHTSDECLYCSPVCKELQYVKQECNRTHNRVCECKEGRYLEIEFCLKHRSCPPGFGVVQAGTPERNTVCKRCPDGFFSNETSSKAPCRKHTNCSVFGLLLTQKGNATHDNICSGNSESTQKCGIDVTLCEEAFFRFAVPTKFTPNWLSVLVDNLPGTKVNAESVERIKRQHSSQEQTFQLLKLWKHQNKDQDIVKKIIQDIDLCENSVQRHIGHANLTFEQLRSLMESLPGKKVGAEDIEKTIKACKPSDQILKLLSLWRIKNGDQDTLKGLMHALKHSKTYHFPKTVTQSLKKTIRFLHSFTMYKLYQKLFLEMIGNQVQSVKISCL
For B2, the IC50, RANK-L induced NF-kappaB reporter (luciferase) in HEK293T [9] was 6.03 nM.

B3: RANKL001p (VHH)
chain: EVQLVESGGGLVQPGGSLRLSCAASGFTFSSYPMGWFRQAPGKGREFVSSITGSGGSTYYADSVKGRFTISRDNAKNTLYLQMNSLRPEDTAVYYCAAYIRPDTYLSRDYRKYDYWGQGTLVTVSSGGGGSGGGSEVQLVESGGGLVQPGGSLRLSCAASGFTFSSYPMGWFRQAPGKGREFVSSITGSGGSTYYADSVKGRFTISRDNAKNTLYLQMNSLRPEDTAVYYCAAYIRPDTYLSRDYRKYDYWGQGTLVTVSSGGGC
modifications: PEGylated with maleimide PEG, average MW 40,000; residue not stated (the entry ends in GGGC)
B3 was tested, and the IC50 [10] was 0.0465 nM.
